Reference: PMC2955292 (Chemistry & biology, 2010)

Target: E. coli ClpP (Escherichia coli, UniProt P0A6G7)
Settings: Figure S1A; SDS-PAGE

Chain of E. coli ClpP (P0A6G7 15-207): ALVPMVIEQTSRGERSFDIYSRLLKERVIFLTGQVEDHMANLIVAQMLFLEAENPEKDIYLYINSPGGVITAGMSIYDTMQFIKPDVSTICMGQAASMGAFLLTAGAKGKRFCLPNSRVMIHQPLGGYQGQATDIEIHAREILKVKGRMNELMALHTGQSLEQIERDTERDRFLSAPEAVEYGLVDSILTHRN

B1: ClpA: AAA+ family ATPase that assembles into hexameric rings and binds ClpP (protein)
chain: MLNQELELSLNMAFARAREHRHEFMTVEHLLLALLSNPSAREALEACSVDLVALRQELEAFIEQTTPVLPASEEERDTQPTLSFQRVLQRAVFHVQSSGRNEVTGANVLVAIFSEQESQAAYLLRKHEVSRLDVVNFISHGTRKDEPTQSSDPGSQPNSEEQAGGEERMENFTTNLNQLARVGGIDPLIGREKELERAIQVLCRRRKNNPLLVGESGVGKTAIAEGLAWRIVQGDVPEVMADCTIYSLDIGSLLAGTKYRGDFEKRFKALLKQLEQDTNSILFIDEIHTIIGAGAASGGQVDAANLIKPLLSSGKIRVIGSTTYQEFSNIFEKDRALARRFQKIDITEPSIEETVQIINGLKPKYEAHHDVRYTAKAVRAAVELAVKYINDRHLPDKAIDVIDEAGARARLMPVSKRKKTVNVADIESVVARIARIPEKSVSQSDRDTLKNLGDRLKMLVFGQDKAIEALTEAIKMARAGLGHEHKPVGSFLFAGPTGVGKTEVTVQLSKALGIELLRFDMSEYMERHTVSRLIGAPPGYVGFDQGGLLTDAVIKHPHAVLLLDEIEKAHPDVFNILLQVMDNGTLTDNNGRKADFRNVVLVMTTNAGVRETERKSIGLIHQDNSTDAMEEIKKIFTPEFRNRLDNIIWFDHLSTDVIHQVVDKFIVELQVQLDQKGVSLEVSQEARNWLAEKGYDRAMGARPMARVIQDNLKKPLANELLFGSLVDGGQVTVALDKEKNELTYGFQSAQKHKAEAAH
Which “pattern of β-casein degradation products (processivity)” value does the source give for B1 here?
Its value is “promoted processive degradation of β-casein”.
